Patent US20220119534A1 (DRAGONFLY THERAPEUTICS, published 2022)

Key:
[1] = molecular target: T1, Human CD16a V158 (FcγRIIIa V158) (human, UniProt P08637 17-208, biotinylated (site not stated)); assay: SPR; biotinylated CD16a V158 captured on SA chip, TriNKET as analyte; 1:1 kinetic fit; after 4 wks 40 C in HST pH 6.0, n=3
T1 construct: V158 is the allele name in mature numbering; also called hCD16aV; hCD16a V158

[2] = molecular target: T2, Human CLEC12A-His (recombinant, K244 WT) (human, UniProt Q5QGZ9 65-265); assay: SPR, two-state fit; control sample
T2 construct: Made in house (Dragonfly Tx); also called hCLEC12A; hCLEC12A-His; not shown: His tag
T2 sequence: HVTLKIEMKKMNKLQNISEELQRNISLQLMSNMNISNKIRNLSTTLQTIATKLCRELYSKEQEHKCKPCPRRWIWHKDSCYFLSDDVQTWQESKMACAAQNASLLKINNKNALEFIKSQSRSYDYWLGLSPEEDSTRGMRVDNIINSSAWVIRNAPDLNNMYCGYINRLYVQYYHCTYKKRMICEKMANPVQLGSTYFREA

[3] = molecular target: T3, mFc-hNKG2D (recombinant mFc-tagged human NKG2D dimer) (human, UniProt P26718 73-216); assay: SPR; after 4 wks 40C in HST pH 6.0
T3 construct: extracellular domain; Made in house; not shown: mouse Fc tag
T3 sequence (looked up): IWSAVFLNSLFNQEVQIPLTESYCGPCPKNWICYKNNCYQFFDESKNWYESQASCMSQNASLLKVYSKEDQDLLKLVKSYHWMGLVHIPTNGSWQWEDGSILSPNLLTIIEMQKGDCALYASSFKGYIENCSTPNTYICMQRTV

[4] = molecular target: T4, Human CD16a V158 (FcγRIIIa V158) (human, UniProt P08637 17-208, biotinylated); assay: SPR; after 4 wks 40C in HST pH 6.0
T4 construct: Bought recombinant receptor; also called hCD16aV; hFcγRIIIa V158
T4 sequence (P08637 17-208 F176V limits assumed): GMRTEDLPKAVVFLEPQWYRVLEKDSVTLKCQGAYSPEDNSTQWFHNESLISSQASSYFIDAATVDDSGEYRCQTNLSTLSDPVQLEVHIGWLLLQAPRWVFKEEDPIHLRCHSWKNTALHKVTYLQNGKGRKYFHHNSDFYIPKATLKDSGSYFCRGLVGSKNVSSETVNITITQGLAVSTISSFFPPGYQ

[5] = molecular target: T5, recombinant human CLEC12A-His (human, UniProt Q5QGZ9 65-265); assay: SPR 37C
T5 construct: also called hCLEC12A-His; hCLEC12A
T5 sequence: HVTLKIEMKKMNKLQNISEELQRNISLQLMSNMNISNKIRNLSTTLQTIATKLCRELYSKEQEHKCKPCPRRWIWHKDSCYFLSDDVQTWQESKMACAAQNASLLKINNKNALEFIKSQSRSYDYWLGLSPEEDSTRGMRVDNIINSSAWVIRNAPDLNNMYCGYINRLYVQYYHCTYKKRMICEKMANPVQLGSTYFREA

Human CLEC12A-His = molecular target: T6, Human CLEC12A-His (human, UniProt Q5QGZ9 65-265); assay: SPR; sample after 4 weeks at 40 C in CST pH 7.0
T6 construct: Recombinant soluble protein made in house; also called hCLEC12A-His; hCLEC12A; not shown: His tag
T6 sequence: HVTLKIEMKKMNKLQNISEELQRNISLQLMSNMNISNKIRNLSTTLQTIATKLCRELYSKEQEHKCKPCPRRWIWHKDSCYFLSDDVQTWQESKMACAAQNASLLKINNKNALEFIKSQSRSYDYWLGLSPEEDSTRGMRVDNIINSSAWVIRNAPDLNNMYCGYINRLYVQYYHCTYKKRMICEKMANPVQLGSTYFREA

T1 sequence (P08637 17-208 F176V limits assumed): as the sequence (P08637 17-208 F176V limits assumed) above

B1: F3'-1602 TriNKET (bispecific antibody, human IgG1, kappa)
chain: QLQLQESGPGLVKPSETLSLTCTVSGFSLTNYGLHWIRQPPGKCLEWIGVIWSGGKTDYNPSLKSRVTISKDTSKNQFSLKLSSVQAADTAVYYCAKYDYDDSLDYWGQGTLVTVSSGGGGSGGGGSGGGGSGGGGSDIQMTQSPSSLSASVGDRVTITCHASQNINFWLSWYQQKPGKAPKLLIYEASNLHTGVPSRFSGSGSGTRFTLTISSLQPEDIATYYCQQSHSYPLTFGCGTKLEIKGSDKTHTCPPCPAPELLGGPSVFLFPPKPKDTLMISRTPEVTCVVVDVSHEDPEVKFNWYVDGVEVHNAKTKPREEQYNSTYRVVSVLTVLHQDWLNGKEYKCKVSNKALPAPIEKTISKAKGQPREPRVYTLPPCRDELTKNQVSLTCLVKGFYPSDIAVEWESNGQPENNYKTTPPVLVSDGSFTLYSKLTVDKSRWQQGNVFSCSVMHEALHNHYTQKSLSLSPG
heavy: EVQLVESGGGLVKPGGSLRLSCAASGFTFSSYSMNWVRQAPGKGLEWVSSISSSSSYIYYADSVKGRFTISRDNAKNSLYLQMNSLRAEDTAVYYCARGAPIGAAAGWFDPWGQGTLVTVSSASTKGPSVFPLAPSSKSTSGGTAALGCLVKDYFPEPVTVSWNSGALTSGVHTFPAVLQSSGLYSLSSVVTVPSSSLGTQTYICNVNHKPSNTKVDKKVEPKSCDKTHTCPPCPAPELLGGPSVFLFPPKPKDTLMISRTPEVTCVVVDVSHEDPEVKFNWYVDGVEVHNAKTKPREEQYNSTYRVVSVLTVLHQDWLNGKEYKCKVSNKALPAPIEKTISKAKGQPREPQVCTLPPSRDELTENQVSLTCLVKGFYPSDIAVEWESNGQPENNYKTTPPVLDSDGSFFLYSWLTVDKSRWQQGNVFSCSVMHEALHNHYTQKSLSLSPG
light: DIQMTQSPSSVSASVGDRVTITCRASQGISSWLAWYQQKPGKAPKLLIYAASSLQSGVPSRFSGSGSGTDFTLTISSLQPEDFATYYCQQGVSFPRTFGGGTKVEIKRTVAAPSVFIFPPSDEQLKSGTASVVCLLNNFYPREAKVQWKVDNALQSGNSQESVTEQDSKDSTYSLSSTLTLSKADYEKHKVYACEVTHQGLSSPVTKSFNRGEC
notes: Trispecific F3' format: CLEC12A scFv-Fc paired with NKG2D Fab-Fc; Stressed and control samples of the stability studies are the same molecule; also called AB0237
With B1 the Kd [1] was 201 nM, the koff [1] was 0.0165 s⁻¹ and the kon [1] was 82400 M⁻¹ s⁻¹.

B2: AB0089 TriNKET (bispecific antibody, human IgG1, kappa)
chain: QLQLQESGPGLVKPSETLSLTCTVSGFSLTNYGLHWIRQPPGKCLEWIGVIWVGGATDYNPSLKSRVTISVDTSKNQFSLKLSSVQAADTAVYYCAKGDYGDTLDYWGQGTLVTVSSGGGGSGGGGSGGGGSGGGGSDIQMTQSPSSLSASVGDRVTITCHASQNINFWLSWYQQKPGKAPKLLIYEASNLHTGVPSRFSGSGSGTDFTLTISSLQPEDFATYYCQQSHSYPLTFGCGTKLEIKGSDKTHTCPPCPAPELLGGPSVFLFPPKPKDTLMISRTPEVTCVVVDVSHEDPEVKFNWYVDGVEVHNAKTKPREEQYNSTYRVVSVLTVLHQDWLNGKEYKCKVSNKALPAPIEKTISKAKGQPREPRVYTLPPCRDELTKNQVSLTCLVKGFYPSDIAVEWESNGQPENNYKTTPPVLVSDGSFTLYSKLTVDKSRWQQGNVFSCSVMHEALHNHYTQKSLSLSPG
heavy: EVQLVESGGGLVKPGGSLRLSCAASGFTFSSYSMNWVRQAPGKGLEWVSSISSSSSYIYYADSVKGRFTISRDNAKNSLYLQMNSLRAEDTAVYYCARGAPIGAAAGWFDPWGQGTLVTVSSASTKGPSVFPLAPSSKSTSGGTAALGCLVKDYFPEPVTVSWNSGALTSGVHTFPAVLQSSGLYSLSSVVTVPSSSLGTQTYICNVNHKPSNTKVDKKVEPKSCDKTHTCPPCPAPELLGGPSVFLFPPKPKDTLMISRTPEVTCVVVDVSHEDPEVKFNWYVDGVEVHNAKTKPREEQYNSTYRVVSVLTVLHQDWLNGKEYKCKVSNKALPAPIEKTISKAKGQPREPQVCTLPPSRDELTENQVSLTCLVKGFYPSDIAVEWESNGQPENNYKTTPPVLDSDGSFFLYSWLTVDKSRWQQGNVFSCSVMHEALHNHYTQKSLSLSPG
light: DIQMTQSPSSVSASVGDRVTITCRASQGISSWLAWYQQKPGKAPKLLIYAASSLQSGVPSRFSGSGSGTDFTLTISSLQPEDFATYYCQQGVSFPRTFGGGTKVEIKRTVAAPSVFIFPPSDEQLKSGTASVVCLLNNFYPREAKVQWKVDNALQSGNSQESVTEQDSKDSTYSLSSTLTLSKADYEKHKVYACEVTHQGLSSPVTKSFNRGEC
notes: F3' format heterodimer of three chains; human IgG1 Fc with EW-RVT and Y349C/S354C mutations; also called AB0089 Lot AB0089-002; CLEC12A TriNKET AB0089
Work on B2 yielded a Kd [2] of 1 nM, a Kd [3] of 796 nM and a koff [3] of 0.132 s⁻¹. For the same binder, the kon [3] was 166000 M⁻¹ s⁻¹, the Kd [4] was 359 nM and the koff [4] was 0.0284 s⁻¹. The kon [4] was 79300 M⁻¹ s⁻¹.

B3: F3'-1602 TriNKET (other)
chain: QLQLQESGPGLVKPSETLSLTCTVSGFSLTNYGLHWIRQPPGKCLEWIGVIWSGGKTDYNPSLKSRVTISKDTSKNQFSLKLSSVQAADTAVYYCAKYDYDDSLDYWGQGTLVTVSSGGGGSGGGGSGGGGSGGGGSDIQMTQSPSSLSASVGDRVTITCHASQNINFWLSWYQQKPGKAPKLLIYEASNLHTGVPSRFSGSGSGTRFTLTISSLQPEDIATYYCQQSHSYPLTFGCGTKLEIKGSDKTHTCPPCPAPELLGGPSVFLFPPKPKDTLMISRTPEVTCVVVDVSHEDPEVKFNWYVDGVEVHNAKTKPREEQYNSTYRVVSVLTVLHQDWLNGKEYKCKVSNKALPAPIEKTISKAKGQPREPRVYTLPPCRDELTKNQVSLTCLVKGFYPSDIAVEWESNGQPENNYKTTPPVLVSDGSFTLYSKLTVDKSRWQQGNVFSCSVMHEALHNHYTQKSLSLSPG
heavy: EVQLVESGGGLVKPGGSLRLSCAASGFTFSSYSMNWVRQAPGKGLEWVSSISSSSSYIYYADSVKGRFTISRDNAKNSLYLQMNSLRAEDTAVYYCARGAPIGAAAGWFDPWGQGTLVTVSSASTKGPSVFPLAPSSKSTSGGTAALGCLVKDYFPEPVTVSWNSGALTSGVHTFPAVLQSSGLYSLSSVVTVPSSSLGTQTYICNVNHKPSNTKVDKKVEPKSCDKTHTCPPCPAPELLGGPSVFLFPPKPKDTLMISRTPEVTCVVVDVSHEDPEVKFNWYVDGVEVHNAKTKPREEQYNSTYRVVSVLTVLHQDWLNGKEYKCKVSNKALPAPIEKTISKAKGQPREPQVCTLPPSRDELTENQVSLTCLVKGFYPSDIAVEWESNGQPENNYKTTPPVLDSDGSFFLYSWLTVDKSRWQQGNVFSCSVMHEALHNHYTQKSLSLSPG
light: DIQMTQSPSSVSASVGDRVTITCRASQGISSWLAWYQQKPGKAPKLLIYAASSLQSGVPSRFSGSGSGTDFTLTISSLQPEDFATYYCQQGVSFPRTFGGGTKVEIKRTVAAPSVFIFPPSDEQLKSGTASVVCLLNNFYPREAKVQWKVDNALQSGNSQESVTEQDSKDSTYSLSSTLTLSKADYEKHKVYACEVTHQGLSSPVTKSFNRGEC
notes: CLEC12A scFv-Fc, NKG2D A49MI Fab-Fc, human IgG1 Fc; also called AB0237
With B3 the “fold lower KD than F3'-1295” value [5] was ~2 fold.

B4: AB0192 TriNKET (other)
chain: EVQLVESGGGVVQPGGSLRLSCAASGFTFNAFGMHWVRQAPGKCLEWVAFISSGSTSIYYANTVKGRFTISRDNSKNTLYLQMNSLRAEDTAVYYCARDGYPTGGAMDYWGQGTSVTVSSGGGGSGGGGSGGGGSGGGGSDIQMTQSPSSLSASVGDRVTITCKASQDIYNYLSWFQQKPGKAPKPLIYRANILVSGVPSRFSGSGSGQDYTFTISSLQPEDIATYYCLQFDAFPFTFGCGTKLEIKGSDKTHTCPPCPAPELLGGPSVFLFPPKPKDTLMISRTPEVTCVVVDVSHEDPEVKFNWYVDGVEVHNAKTKPREEQYNSTYRVVSVLTVLHQDWLNGKEYKCKVSNKALPAPIEKTISKAKGQPREPRVYTLPPCRDELTKNQVSLTCLVKGFYPSDIAVEWESNGQPENNYKTTPPVLVSDGSFTLYSKLTVDKSRWQQGNVFSCSVMHEALHNHYTQKSLSLSPG
heavy: EVQLVESGGGLVKPGGSLRLSCAASGFTFSSYSMNWVRQAPGKGLEWVSSISSSSSYIYYADSVKGRFTISRDNAKNSLYLQMNSLRAEDTAVYYCARGAPIGAAAGWFDPWGQGTLVTVSSASTKGPSVFPLAPSSKSTSGGTAALGCLVKDYFPEPVTVSWNSGALTSGVHTFPAVLQSSGLYSLSSVVTVPSSSLGTQTYICNVNHKPSNTKVDKKVEPKSCDKTHTCPPCPAPELLGGPSVFLFPPKPKDTLMISRTPEVTCVVVDVSHEDPEVKFNWYVDGVEVHNAKTKPREEQYNSTYRVVSVLTVLHQDWLNGKEYKCKVSNKALPAPIEKTISKAKGQPREPQVCTLPPSRDELTENQVSLTCLVKGFYPSDIAVEWESNGQPENNYKTTPPVLDSDGSFFLYSWLTVDKSRWQQGNVFSCSVMHEALHNHYTQKSLSLSPG
light: DIQMTQSPSSVSASVGDRVTITCRASQGISSWLAWYQQKPGKAPKLLIYAASSLQSGVPSRFSGSGSGTDFTLTISSLQPEDFATYYCQQGVSFPRTFGGGTKVEIKRTVAAPSVFIFPPSDEQLKSGTASVVCLLNNFYPREAKVQWKVDNALQSGNSQESVTEQDSKDSTYSLSSTLTLSKADYEKHKVYACEVTHQGLSSPVTKSFNRGEC
notes: the condition stands under assay; also called AB0192 Lot AB0192-005
With B4 the Kd (Human CLEC12A-His) was 1.96 nM, the koff (Human CLEC12A-His) was 0.00147 s⁻¹ and the kon (Human CLEC12A-His) was 749000 M⁻¹ s⁻¹.
